The source of these data is the supplement of paper PMC12042874.

± gives the uncertainty stated by the source.

The nature of the series: amyloid nucleation score (Sup35N fusion, yeast selection) (log enrichment); library NNK3; higher = more nucleation; inactive = no reads after selection. The method in brief: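 The nucleation score is the log enrichment of output over input reads, calculated with DiMSum and centred on the mode score of non-aggregating sequences. Sequences with under 100 input reads were excluded. Reads came from Illumina sequencing of plasmid inserts from psi-negative yeast expressing Sup35N fused to peptides of 20 random codons, induced 24 hours with 100 μM copper sulfate and grown 7 days at 30°C without adenine and uracil.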
Take NMTVGHILFLMMTCAMYVNN: the amyloid nucleation score entry is “inactive”.
Turning to NMVSFWN, the amyloid nucleation score entry was “inactive”.
For the substance NMYGYADYYRAFRDSN, the amyloid nucleation score entry was “inactive”.
Next, NNCSRICM: “inactive”.
Next, NNEYQRKNLWFKGKVWLCMY: “inactive”; NNFKGFFRRFTVGCSRTPPT: “inactive”.
Next, NNLFWHNAVCLGALEEYLSK: “inactive”; NNLNQRYYTRHLQSGNLFCS: “inactive”; NNSGLSFFSNLGWVLHGDLV: “inactive”.
As for NNVGPAFHDAC, the amyloid nucleation score entry is “inactive”.
Under NPIYDSQLPATSCMQAFNAF stands “inactive”.
Consider NQCIAYYGISRLWQM, for which the amyloid nucleation score result was “inactive”.
Under NQMEN stands 0.843 ± 0.36; under NQRSAILVGPSRNLQY, “inactive”.
NQSCFMSAGNGSF: the amyloid nucleation score result was “inactive”.
Next, NQVISFWYSIQYCYEYSRNS: “inactive”.
Turning to NRACKLCSFKSGQRSNTMGF, the amyloid nucleation score result is “inactive”.
Turning to NRDVLQKPLIIAICQSFCSQ, the amyloid nucleation score came to 2.32 ± 0.083.
Next, NRFMVPETVKENIACFQTIQ: “inactive”; NRIGSKTCKFFMALGM: “inactive”.
In the case of NRKSRSYTLFLV, the amyloid nucleation score entry is “inactive”.
Next, NRLCFISAMCNVTYWVICNH: “inactive”.
For the substance NRLNIFIYSFNVAVVSI, the amyloid nucleation score amounted to 2.31 ± 0.082.
Next, NRLYVKAELCSDAFRIVVAR: “inactive”.
Next, NRQFSDSLYRRACAMKEDCL: 0.643 ± 0.2; NRRGSSVVRI: “inactive”.
Next, NRRNLSLFECLSSTGVSRVN: “inactive”; NRSCRDFRYY: “inactive”.
NSCYRRHMCWCFSKAEFLTL: the amyloid nucleation score result is “inactive”.
Next, NSFDFYAAGPY: “inactive”; NSFDGTYVYTYLPSELSTFP: “inactive”; NSGTKQTLGYSSFRD: “inactive”.
Next, NSIQCKRTVCILSGSTVMRE: “inactive”.
Under NSLFCTWSSPWVYNPTYGWE stands 1.26 ± 0.17; under NSLLGHF, “inactive”.
For NSLMYFRGKFLFSIYNCYVH, the amyloid nucleation score result is “inactive”.
Next, NSLSIVM: -0.523 ± 1.1; NSNSI: “inactive”.
Take NSQGQNYILTFYR: the amyloid nucleation score is 1.82 ± 0.088.
Under NSQKVIYKPFEAIYVTGTLT stands “inactive”; under NSRARSSYRIMNWWLLFDMT, “inactive”; under NSRRCRNFASHRWPPEFRNS, “inactive”.
Next, NSRSFNTFKYNYGMLGFGVA: -0.612 ± 0.84; NSRYQILITLDLC: “inactive”; NSVVSGFLGHVLVGRRCGHR: “inactive”.
Next, NSWDYYVAWPFVRFG: -0.947 ± 0.98; NSYIFVQALMTFGDLTWAFH: 2.34 ± 0.073; NTINVSPVLIDN: “inactive”.
As for NTIRKKNLLFQAWLC, the amyloid nucleation score entry is “inactive”.
Under NTIVLILHYFYNSMLASSVI stands “inactive”; under NTLKSV, “inactive”.
NTRLSMAF: the amyloid nucleation score result is “inactive”.
Turning to NTSYSRMVCSKG, the amyloid nucleation score result was “inactive”.
Next, NTTFS: “inactive”; NVANRGLLHMELSVNKDWAM: 0.699 ± 0.16; NVDDLGFLFIVDAYINCHFR: 1.58 ± 0.12.
Under NVDVYVGVPAQVGFVILFWT stands -0.241 ± 0.61; under NVECSCDPEKTFIPKSVSLK, 0.102 ± 0.63; under NVGWIWPYM, “inactive”.
Under NVLLYNRKGQFSKCLCKSVD stands “inactive”; under NVMVISMMTSR, “inactive”; under NVQQALIHVSAHGCRFFLTC, 2.71 ± 0.065.
Regarding NVRFDGKVWLG, the amyloid nucleation score was 0.744 ± 0.31.
NVRSNFLVADVVVFVRKIVR registered an amyloid nucleation score of 2.42 ± 0.072.
For NVRVYSFQMTVECKELLDSQ, the amyloid nucleation score result was “inactive”.
Under NVSQFISIGVVITFKMLLVW stands -0.478 ± 0.68.
Under NVSRRGC stands “inactive”; under NVTTVFNKIPLPDSFNMRRW, 1.28 ± 0.084.
Next, NWCILTLNGVSGRIRLPCWS: 0.405 ± 0.19; NWDFFKLKVNSHLTYAHDHR: “inactive”; NWDTNFVYSIGIDIY: “inactive”.
On to NWFCRGVIELPHPYAQTNFS, for which the amyloid nucleation score entry was “inactive”.
Under NWIVGSWCKVLSVVEKEW stands 0.101 ± 0.62; under NWKLPGFPNLVQRITTDSPL, “inactive”.
Next, NWPGMLFNLSLVERRSWRRN: “inactive”; NWRLFWG: 1.6 ± 0.077.
In the case of NWSVHTGIDKVKADDGEFQL, the amyloid nucleation score entry is “inactive”.
Next, NWVQKRPGQRHFNIASNCV: “inactive”; NWVVFFTYMAHHE: 0.166 ± 0.26.
Next, NWYSLKGVISNFSAVFSHGY: “inactive”; NYFQFLKENFVARNKESRRG: “inactive”; NYKVRLNQDFENRHRYSMDT: “inactive”.
Under NYLFRT stands “inactive”; under NYLGVTYCSYSS, “inactive”; under NYLRLFLISIAYKSVLSVML, “inactive”.
Consider NYLVYSCDVRYSYMVSELAS, for which the amyloid nucleation score entry is “inactive”.
Next, NYLYVELIWLHFSSMALRDD: “inactive”; NYMYGLRGSRLQFGMFRFGG: “inactive”.
Next, NYSAFRGSMIV: “inactive”; NYSFWLAIYSPCRSKCYARC: 1.58 ± 0.057; NYSMNARGPVKDLAVFGSRG: “inactive”.
Under NYYFT stands “inactive”; under NYYLGETLA, “inactive”; under PCKDLQTYWFENWCQRFGR, “inactive”.
Consider PCLFSQDRVRKTRSHKVNAE, for which the amyloid nucleation score result was “inactive”.
Under PCPLGPYLGYFTETSYAHGM stands “inactive”; under PCVYWSLNCSVVIIFSTRLL, “inactive”.
In the case of PDDSRRNPRFG, the amyloid nucleation score result was “inactive”.
Under PDLIHFTCLSSWFSSVVALV stands “inactive”.
Next, PDNFNSRFNTRFKTHTRHPT: “inactive”; PDRLFLDTGSTWFKYMMSCL: -1.12 ± 1.4.
As to PDRMIGGLSFRKFDISCPYA, the amyloid nucleation score entry is “inactive”.
Next, PDTLRRNRVSRFTFAKRCGL: -0.769 ± 0.98.
With PDVFYILVTALWDVRNSNSF, the amyloid nucleation score entry is “inactive”.
Next, PDWVVPDGGIVTGIVGWCSG: “inactive”.
Next, PEFDLCDINSSLGSMRFWQW: “inactive”.
Under PFCFELSWGYGKNKVATMRY stands “inactive”; under PFCRMKLGMTLRALLLVMGS, “inactive”; under PFGVKSMLAVYTHYVFGATV, “inactive”.
With PFPRNGLFHLFWYGLCYMAL, the amyloid nucleation score entry is “inactive”.
Under PFSSLASVVPLRGFG stands “inactive”.
On to PFTACWVSVADNPYPSNKTG, for which the amyloid nucleation score result was “inactive”.
Next, PFWELYKDFSSICRLTQEGY: “inactive”; PGKYGLV: “inactive”.
Turning to PGLIVF, the amyloid nucleation score result is “inactive”.
Next, PGSLI: -0.219 ± 0.52; PHMNWSYVPQF: “inactive”; PIAFSIALPRVVCRQ: “inactive”.
Next, PIFFCFNDVWTGNVVLDAMG: 3.05 ± 0.058; PIMVRRHEGSH: “inactive”.
With PKCSIGKSLLVGRLMDVRAV, the amyloid nucleation score entry is “inactive”.
Under PKIRSF stands “inactive”; under PKNFLSVETF, “inactive”.
Next, PKSYVNTVKVMVVNSQVQLQ: 0.836 ± 0.2; PLFHVFLELYTLPFVENFDV: “inactive”.
Next, PLLLQWHHYNLLGRS: 0.193 ± 0.69; PLPYANKNNCFGNSSLRATI: “inactive”; PLQNKASVRVGCWAML: “inactive”.
For the substance PLSLDFVDVARFSGRTGCWF, the amyloid nucleation score entry is “inactive”.
Next, PLSLSGGDDDRLLSLEMLVL: “inactive”; PLSVAFYGVTIR: 0.056 ± 0.19.
Under PLYQSYYHLEPSCDWCYSSR stands -0.144 ± 0.28.
